Experimental data as given in patent publication CN115433277A.

Target: CD38 FC融合标签蛋白 (CD38 Fc fusion tag protein, expressed in 293F cells) (UniProt P28907)
Assay: indirect ELISA, CD38 protein coated at 1 μg/ml, B cell culture supernatant, goat anti-rabbit IgG-HRP

OD450 | Binder
2.23 OD450 | 命名为8A1的兔重组单克隆抗体 (anti-CD38 rabbit recombinant monoclonal antibody 8A1) (antibody, V domains shown) VH: QSLEESGGDLVKPAGSLTLTCTASGFSFSTSYWICWVRQAPGKGLEWIACIYTGSGSTPYASWAKGRFTISKTSSTTVTLQVTSLTAADTATYFCARDPGVHSGTNLWGQGTLVSVSS VL: DVVMTQTPASVSAAVGGTVTIKCQASEDINTLLAWYQQKPGQPPKLLIYLASNLASGVSSRFKGSRSGTEFTLTISDLECADAATYYCQCTYYGSTYGGTFGGGTEVVVK
1.78 OD450 | 命名为8H7的兔重组单克隆抗体 (anti-CD38 rabbit recombinant monoclonal antibody 8H7) (antibody, V domains shown) VH: QSVKESEGGLFKPTDTLTLTCTVSGFSLSSYGVIWVRQAPGKGLEYIGFVAVGGTTYYANWAKSRSTITRNTNENTVTLKMTSLTAADTATYFCVRNGVSGSSDIWGPGTLVTVSS VL: AYDMTQTPASVSEPVGGTVTIKCQASQSIYSYLSWYQQKLGQPPKLLIYSASTLASGVSSRFKGSGSGTEYTLTISGVECADAATYYCQQDYSGSNVDNTFGGGTEVVVK
